# Numbering of substitutions follows the chain as printed.
# B1: antibody 394 (antibody, V domains shown)
# VH: QVQLVQSGAEVKKPGASVKVSCKASGYTFTGYYMHWVRQAPGQGLEWMGWINPNNGGTNSAQKFQGRVTMTRDTSISTAYMELNRLRSDDTAVYYCARDITTTAGTDYYYGMDVWGQGTTVTVSS
# VL: SYELTQPPSVSVSPGQTARITCSGDALPKQYAYWYQQKPGQAPVLVICKDSERPSGIPERFSGSSSGTTVTLTISGVQAEDEADYYCQSADSSGTYIVFGTGTKVTVL
# B2: antibody 397 (antibody, V domains shown)
# VH: QVQLVESGGGVVQPGRSLRLSCAASGFTFSSYGMHWVRQAPGKGLESVAVISYDGSNKYYADSVKGRFTISRDNSKNTLYLQMNSLRAEDTAVYYCAKEGQWELQGNAFDIWGQGTMVTVSS
# VL: B1 VL with C48Y, A90G, I97R, T101G, V105L
# B3: antibody 391 (antibody, V domains shown)
# VH: EVQLVESGGGLVQPGGSLRLSCAASGFTFSSYWMHWVRQAPGKGLVWVSRINSDGSSTSYADSVKGRFTISRDNAKNTLYLQMNSLRAEDTAVYYCALGPLDIVGSYYYYGMDVWGQGTTVTVSS
# VL: NFMLTQPHSVSESPGKTVTISCTGSSGSIASNYVQWYQQRPGSAPTTVIYEDNQRPSGVPDRFSGSIDSSSNSASLTISGLKTEDEADYYCQSYDSSNQDVVFGGGTKLTVL
# B4: antibody 399 (antibody, V domains shown)
# VH: QVQLVQSGAEVKKPGASVKVSCKASGYTFTSYGISWVRQAPGQGLEWMGWISAYNGNTNYAQKLQGRVTMTTDTSTSTAYMELRSLRSDDTAVYYCARDSGYDWAGGHYYYYGMDVWGQGTTVTVSS
# VL: QSALTQPASVSGSPGQSITISCTGTSSDVGGYNYVSWYQQHPGKAPKLMIYEVSNRPSGVSNRFSGSKSGNTASLTISGLQAEDEADYYCSSYTSSSTLVVFGGGTKLTVL
# B5: antibody 404 (antibody, V domains shown)
# VH: QVQLVESGGGVVQPGRSLRLSCAASGFTFSSYGMHWVRQAPGKGLEWVAVIWYDGSNKYYADSVKGRFTISRDNSKNTLYLQMNSLRAEDTAVYYCARLAVDISFDGSDGMDVWGQGTTVTVSS
# VL: SYELTQPPSVSVSPGQTARITCSGDALPKKYAYWYQQKSGQAPVLVIYEDSKRPSGIPERFSGSSSGTMATLTISGAQVEDEADYYCYSTDSSGKGVFGTGTKVTVL
# B6: antibody 401 (antibody, V domains shown)
# VH: QVQLVQSGAEVKKPGSSVKVSCKASGGTFSSYAISWVRQAPGQGLEWMGRIIPILGIANYAQKFQGRVTIIADKSTSTAYMELSSLRSEDKAVYYCAREGKSDSSSALWYFDLWGRGTLVTVSP
# VL: not shown
# B7: antibody 410 (antibody, V domains shown)
# VH: QVQLVQSGAEVKKPGASVKVSCKASGYTFTSYGISWVRQAPGQGLEWMGWISAYNGNTNYAQKLQGRVTMTTDTSTSTAYMELRSLRSDDTAVYYCARGRITIFGVEYYYGMDVWGQGTTVTVSS
# VL: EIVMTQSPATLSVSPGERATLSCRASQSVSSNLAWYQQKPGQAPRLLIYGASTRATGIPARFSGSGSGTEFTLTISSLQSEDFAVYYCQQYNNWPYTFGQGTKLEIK
# B8: antibody 402 (antibody, V domains shown)
# VH: QVQLVQSGAEVKKPGASVKVSCKVSGYTLTELSMHWVRQAPGKGLEWMGGFDPEDVETIYAQKFQGRVTMTEDTSTDTAYMELSSLRSEDTAVYYCATGVAVVGTSHSYYYYYGMDVWGQGTTVTVSS
# VL: DIQMTQSPSSLSASVGDRVTITCRASQGISNYLAWYQQKPGKVPKLLIYAASTLQSGVPSRFSGSGSGTDFTLTISSLQPEDVATYYCQKYNSAPFTFGPGTKVDIK
# B9: antibody 461 (antibody, V domains shown)
# VH: EVQLVESGGGLVKPGGSLRLSCAASGFTFSSYSMNWVRQAPGKGLEWVSSISSSSSYIYYADSVKGRFTISRDNAKNSLYLQMNSLRAEDTAVYYCASNPAAGQEAYYYYGMDVWGQGTTVTVSS
# VL: not shown
# B10: antibody 430 (antibody, V domains shown)
# VH: QVHLVEAGGGVVQPGKSLRLSCAASGFIFSNFGMHWVRQSPGKGLEWVAVVSYDASVTKYSDSFEGRFTISRDNSKNTLYLQMDSLRPEDSAVYYCAKGQGANLLHDWGQGILVTVSS
# VL: DVVLTQSPLSLPVTLGQPASISCRSSESLVYTDGDTYLHWFHQRPGQSPRRLIYKVSNRDSGVPDRFSGSGSGTDFTLRISRVEAEDVGVYYCMQGTHWPFTFGPGTKVDIK
# B11: antibody 438 (antibody, V domains shown)
# VH: EVQLVESGGGLVQPGGSLRLSCAASGFTFSSYSMNWVRQAPGKGLEWVSYISSSSSTIYYADSVKGRFTISRDNAKNSLYLQMNSLRAEDTAVYYCARDRGYSDYGPYYYGMDVWGQGTTVTVSS
# VL: not shown
# B12: antibody 453 (antibody, V domains shown)
# VH: QVQLVESGGGVVQPGRSLRLSCAASGFTFSSYAMYWVRQAPGKGLEWVAVISYDGSNKYYADSVKGRFTISRDNSKNTLYLQMNSLRAEDTAVYYCARDRPHYYGSGRKILNLYGMDVWGQGTTVTVSS
# VL: DIQLTQSPSFLSASVGDRVTITCRASQGISSYLAWYQQKPGKAPKLLIYAASTLQSGVPSSFSGSGSGTEFTLTISSLQPEDFATYYCQQLNSYPPFTFGPGTKVDIK
# B13: antibody 433 (antibody, V domains shown)
# VH: QVQLVESGGGVVQPGRSLRLSCAASGFTFSSYAMHWVRQAPGKGLEWVAVISYDGSNKYYADSVKGRFTISRDNSKNTLYLQMNSLRAEDTAVYYCAKDYEVVIAIGGPGAFDYWGQGTLVTVSS
# VL: SYVLTQPPSVSVAPGKTARITCGGNNIGSKSVHWYQQKPGQAPVLVIYYDSDRPSGIPERFSGSNSGNTATLTISRVEAGDEADYYCQVWDSSSDHVVFGGGTKLTVL
# B14: antibody 458 (antibody, V domains shown)
# VH: QVQLVESGGGVVQPGRSLRLSCAASEFTFATYAMHWVRQAPGKGLEWVALISQDGSNKHYADSVKGRFTISRDNSKNTLYLQMNSLRAEGTAIYYCARESLEAAGPPFDYWGQGTLVTVSS
# VL: SYELTQPPSVSVSPGQTATIICSGDKLGEKYASWYQQKPGQSPALVIYQDRKRPSGIPERFSGSNSGNTATLTISGTQAMDEADYYCQAWDSSNSVVFGGGTKLTVP
# B15: antibody 441 (antibody, V domains shown)
# VH: EVQLVESGGGVVRPGGSLRLSCAASGFTFGDYGMSWVRQAPGKGLEWVSGINWNGGSTGYADSVKGRFTISRDNAKNSLYLQMNSLRAEDTALYYCASDLVRGVIGFDYWGQGTLVTVSS
# VL: B1 VL with C48Y, T95I, Y96T, I97G, T101G, V105L
# B16: antibody 440 (antibody, V domains shown)
# VH: EVQLLESGGGLVQPGGSLRLSCAASGFTFSSYAMSWVRQAPGKGLEWVSAISGSGVNTYHADSVKGRFTISRDNSRNTLYLQMSSLTAEDTAAYYCAKDFEAASGAYYYYGMDVWGQGTTVTVSS
# VL: B1 VL with K29D, L45V, C48Y, S51R, S65N, G94A, I97V, T101G, V105L
# B17: antibody 449 (antibody, V domains shown)
# VH: not shown
# VL: QSALTQPASVSGSPGQSITISCTGTSSDVGGYNYVSWYQQHPGKAPKLMIYEVSNRPSGVSNRFSGSKSGNTASLTISGLQAEDEADYYCSSYTSSSTVVFGGGTKLTVL
# B18: antibody 448 (antibody, V domains shown)
# VH: QVQLVQSGAEVKKPGASVKVSCKASGYTFTSYGISWVRQAPGQGLEWMGWISAYNGNTNYAQKLQGRVTMTTDTSTSTAYMELRSLRSDDTAVYYCAIELLEGFYYYYGMDVWGQGTTVTVSS
# VL: SYELTQPPSVSVSPGQTARITCSGDALPKQYAYWYQQKPGQAPVLVIYKDSERPSGIPERFSGSSSGTTVTLTISGVQAEDEADYYCQSADSSGTYPYVVFGGGTKLTVL
# B19: antibody 451 (antibody, V domains shown)
# VH: EVQLVESGGGLVQPGGSLRLSCAASGFTFSTYWMSWVRQAPGKGLEWVANIKQDGSEKYYVDSVKGRFTISRDNAKNSLYLQMNSLRAEDTAVYYCARLGGSSWYFDYWGQGTLVTVSS
# VL: not shown
# B20: antibody 455 (antibody, V domains shown)
# VH: QVQLVQSGAEVKKPGSSVKVSCKASGGTFSSYAISWVRQAPGQGLEWMGRIIPILGIANYAQKFQGRVTITADKSTSTAYMELSSLRSEDTAVYYCARDSIVVPAAIISGYYYYGMDVWGQGTTVTVSS
# VL: QSVLTQPPSVSAAPGQKVTISCSGSSSNIGNNYVSWYQQLPGTAPKLLIYDNNKRPSGIPDRFSGSKSGTSATLGITGLQTGDEADYYCGTWDSSLSAGRVFGGGTKLTVL
# Biological target: SARS-CoV-2 full length spike protein, V367F mutant, expressed on CHO cells (SARS-CoV-2, UniProt P0DTC2 14-1273)
row,Binder,median fluorescence fold over isotype control [fold over isotype]
1,B1,37.8
2,B2,32.8
3,B3,18.8
4,B4,30.6
5,B5,27.4
6,B6,35.5
7,B7,7.64
8,B8,46.9

# Biological target: SARS-CoV-2 full length spike protein, D614G mutant, expressed on CHO cells (SARS-CoV-2, UniProt P0DTC2 14-1273)
row,Binder,median fluorescence fold over isotype control [fold over isotype]
1,B1,63.4
2,B2,7.97
3,B3,35.6
4,B4,70.1
5,B5,6.02
6,B6,8.76
7,B7,17.9
8,B8,67.8

# Biological target: SARS-CoV-2 full length spike protein, V367F mutant (SARS-CoV-2, UniProt P0DTC2 14-1273)
row,Binder,median fluorescence fold over isotype control [fold over isotype]
1,B9,6.89
2,B10,38.3
3,B11,44
4,B12,39.4
5,B13,12.3
6,B14,27.4
7,B15,6.24
8,B16,7.17
9,B17,36.9
10,B18,5.79
11,B19,29.9
12,B20,32.3

# Biological target: SARS-CoV-2 full length spike protein, D614G mutant (SARS-CoV-2, UniProt P0DTC2 14-1273)
row,Binder,median fluorescence fold over isotype control [fold over isotype]
1,B9,27.8
2,B10,9.17
3,B11,71.2
4,B12,7.41
5,B13,23.1
6,B14,6.23
7,B15,14.9
8,B16,15.8
9,B17,68.1
10,B18,13.3
11,B19,6.29
12,B20,8.24
